According to PMC7456325, “Diversity in the intrinsic apoptosis pathway of nematodes” (Communications Biology, 2020):

Tests used:
[1] = biological target: T1, T. suis A ΔC28 (Trichuris suis BCL-2-like protein A, C-terminal truncation) (Trichuris suis, labelled with the NHS RED NanoTemper labelling kit (MO-L001) for MST); test: MST; Monolith NT.115; protein labelled with NHS RED, unlabelled synthetic peptide diluted in phosphate-buffered saline; 30 min incubation; 25 °C; 40% LED and 40% MST power; three independent experiments, single binding model; conditions: both partners purified
T1 chain: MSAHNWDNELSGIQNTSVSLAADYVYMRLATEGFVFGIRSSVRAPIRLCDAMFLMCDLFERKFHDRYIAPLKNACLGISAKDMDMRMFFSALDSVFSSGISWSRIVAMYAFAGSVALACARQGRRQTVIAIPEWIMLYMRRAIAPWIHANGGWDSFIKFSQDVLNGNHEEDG

[2] = biological target: BCL-XLΔC24 (labelled with the NHS RED NanoTemper labelling kit (MO-L001) for MST); test: as above; conditions: both partners purified
Chain of BCL-XLΔC24 (labelled with the NHS RED NanoTemper labelling kit (MO-L001) for MST) (chain, as listed by the source mutant): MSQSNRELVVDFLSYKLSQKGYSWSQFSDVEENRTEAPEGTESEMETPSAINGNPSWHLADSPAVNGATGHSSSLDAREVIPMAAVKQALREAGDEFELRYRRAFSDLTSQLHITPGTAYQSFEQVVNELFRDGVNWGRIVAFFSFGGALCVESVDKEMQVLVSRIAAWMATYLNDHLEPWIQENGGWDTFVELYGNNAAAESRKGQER

| Binder | Kd [1] [µM] | Kd [2] [µM] |
| --- | --- | --- |
| PILPEVNKTALCMRAMGEVFEDRYKT (BH3 domain of Trichuris suis BCL-2-like protein B (ID# BCL_257); also called T. suis B BH3 domain peptide; source: synthetic peptide (Mimotopes, Australia, >90% purity)) [T. suis protein B BH3 peptide] | > 50 | – |
| SVRAPIRLCDAMFLMCDLFERKFHDR (BH3 domain of Trichuris suis BCL-2-like protein A (ID# BCL_199); also called T. suis A BH3 domain peptide; source: synthetic peptide (Mimotopes, Australia, >90% purity)) [T. suis protein A BH3 peptide] | > 50 | – |
| PSSTMGQVGRQLAIIGDDINRRYDSE (BH3 domain of BAK; also called BAK BH3 domain; source: synthetic peptide (Mimotopes, Australia, >90% purity)) [BAK BH3 peptide] | – | 0.178 ± 0.034 |
